{"source": "paper PMC9561612", "target": "CXCR4 receptor (human (endogenous in MDA-MB-231)) (UniProt P61073)", "sequence (P61073 whole entry)": "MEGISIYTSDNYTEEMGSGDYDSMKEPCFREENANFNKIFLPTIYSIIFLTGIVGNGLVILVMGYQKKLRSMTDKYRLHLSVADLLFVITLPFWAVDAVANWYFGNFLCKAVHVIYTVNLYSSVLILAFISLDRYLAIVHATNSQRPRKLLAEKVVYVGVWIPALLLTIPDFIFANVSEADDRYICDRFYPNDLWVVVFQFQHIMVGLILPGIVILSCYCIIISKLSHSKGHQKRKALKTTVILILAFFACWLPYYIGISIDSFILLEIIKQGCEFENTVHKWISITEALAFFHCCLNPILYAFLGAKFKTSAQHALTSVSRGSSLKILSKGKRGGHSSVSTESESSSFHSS", "data": [{"substance": "OHD_(4–12) (Obligate HeteroDimer CXCL4–CXCL12) (from UniProt P48061-2 22-89) (complex)", "values": [{"measurement": "cytoplasmic Ca2+ release in MDA-MB-231 cells (Fura-2), dose response to OHD (4–12), EC50", "value": 1.3, "unit": "nM"}]}]}
